According to patent US20110105397A1, “METHOD FOR TREATING HEART FAILURE WITH STRESSCOPIN-LIKE PEPTIDES” (priority 2009, published 2011):
Where no end group is shown, it is not given here. The star is where a group is joined. Succinimide(1-Et,3-yl) = CCN1C(=O)CC(*)C1=O

T1: human corticotrophin releasing hormone receptor type 2 (CRHR2) (human, UniProt Q13324 1-411)
T1 sequence (looked up): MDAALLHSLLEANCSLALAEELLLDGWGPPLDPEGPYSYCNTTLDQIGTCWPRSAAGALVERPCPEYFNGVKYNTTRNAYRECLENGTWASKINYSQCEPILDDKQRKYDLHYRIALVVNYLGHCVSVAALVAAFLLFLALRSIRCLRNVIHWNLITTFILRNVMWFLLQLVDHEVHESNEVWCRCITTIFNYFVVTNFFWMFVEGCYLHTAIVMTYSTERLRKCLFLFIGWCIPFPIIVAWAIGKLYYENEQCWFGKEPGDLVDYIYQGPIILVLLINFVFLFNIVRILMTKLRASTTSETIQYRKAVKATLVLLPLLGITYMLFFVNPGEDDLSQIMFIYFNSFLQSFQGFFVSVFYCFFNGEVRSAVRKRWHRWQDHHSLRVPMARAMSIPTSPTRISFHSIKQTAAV


Target: T1, human corticotrophin releasing hormone …
Assay: cell-based or functional assay

| Log DR [log10] | pA50 | Binder |
| --- | --- | --- |
| 1.1 | 8.64 -log10(M) | TKFTLSLDVPTNIMNLLFNIAKAKNLRCQAAANAHLMAQI (NES-PEG MW40000 on Cys 28; C-terminal amide (-NH2)) [Pegylated Cys-variant stresscopin-like peptide, NES-PEG MW40000, SEQ ID NO: 100] |
| 1 | 8.74 -log10(M) | TKFTLSLDVPTNIMNLLFNIAKAKNLRCQAAANAHLMAQI (NES-PEG MW5000 on Cys 28; C-terminal amide (-NH2)) [Pegylated Cys-variant stresscopin-like peptide, NES-PEG MW5000, SEQ ID NO: 96] |
| 0.8 | 8.94 -log10(M) | TKFTLSLDVPTNIMNLLFNIAKAKNLRCQAAANAHLMAQI (NES-PEG MW30000 on Cys 28; C-terminal amide (-NH2)) [Pegylated Cys-variant stresscopin-like peptide, NES-PEG MW30000, SEQ ID NO: 99] |
| ~0.74 | ~9 -log10(M) | TKFTLSLDVPTNIMNLLFNIAKAKNLRCQAAANAHLMAQI (NES-PEG MW12000 on Cys 28; C-terminal amide (-NH2)) [Pegylated Cys-variant stresscopin-like peptide, NES-PEG MW12000, SEQ ID NO: 97] |
| 0.18 | 9.5 -log10(M) | TKFTLSLDVPTNIMNLLFNIAKAKNLRCQAAANAHLMAQI-NH2 (not fully specified (residue 28); also: PEG with maleimide at both ends, peptide chains per PEG not given here) [Pegylated Cys-variant stresscopin-like peptide, NES-PEG MW20000 & DOUBLE-ENDED, SEQ ID NO: 98] |

The next lines start with the binder.

| Binder | Log DR [log10] | pA50 |
| --- | --- | --- |
| TKFTLSLDVPTNIMNLLFNIAKAKNLRCQAAANAHLMAQI (NES-PEG MW2000 on Cys 28; C-terminal amide (-NH2)) [Pegylated Cys-variant stresscopin-like peptide, NES-PEG MW2000, SEQ ID NO: 95] | 0.43 | 9.31 -log10(M) |
| TKFTLSLDVPTNIMNLLFNIAKAKNLRAQAC(Succinimide(1-Et,3-yl))ANAHLMAQI-NH2 (N-terminus assumed; SMILES CC[C@H](C)[C@H](NC(=O)[C@H](CCC(N)=O)NC(=O)[C@H](C)NC(=O)[C@H](CCSC)NC(=O)[C@H](CC(C)C)NC(=O)[C@H](Cc1c[nH]cn1)NC(=O)[C@H](C)NC(=O)[C@H](CC(N)=O)NC(=O)[C@H](C)NC(=O)[C@H](CSC1CC(=O)N(CC)C1=O)NC(=O)[C@H](C)NC(=O)[C@H](CCC(N)=O)NC(=O)[C@H](C)NC(=O)[C@H](CCCNC(=N)N)NC(=O)[C@H](CC(C)C)NC(=O)[C@H](CC(N)=O)NC(=O)[C@H](CCCCN)NC(=O)[C@H](C)NC(=O)[C@H](CCCCN)NC(=O)[C@H](C)NC(=O)[C@@H](NC(=O)[C@H](CC(N)=O)NC(=O)[C@H](Cc1ccccc1)NC(=O)[C@H](CC(C)C)NC(=O)[C@H](CC(C)C)NC(=O)[C@H](CC(N)=O)NC(=O)[C@H](CCSC)NC(=O)[C@@H](NC(=O)[C@H](CC(N)=O)NC(=O)[C@@H](NC(=O)[C@@H]1CCCN1C(=O)[C@@H](NC(=O)[C@H](CC(=O)O)NC(=O)[C@H](CC(C)C)NC(=O)[C@H](CO)NC(=O)[C@H](CC(C)C)NC(=O)[C@@H](NC(=O)[C@H](Cc1ccccc1)NC(=O)[C@H](CCCCN)NC(=O)[C@@H](N)[C@@H](C)O)[C@@H](C)O)C(C)C)[C@@H](C)O)[C@@H](C)CC)[C@@H](C)CC)C(N)=O) [Cys-variant of stresscopin peptide with N-Ethylsuccinimide (NES) reactive group SEQ ID NO: 46] | 0.04 | 9.43 -log10(M) |
| TKFTLSLDVPTNIMNLLFNIAKAKNLRAQAAC(Succinimide(1-Et,3-yl))NAHLMAQI-NH2 (N-terminus assumed; SMILES CC[C@H](C)[C@H](NC(=O)[C@H](CCC(N)=O)NC(=O)[C@H](C)NC(=O)[C@H](CCSC)NC(=O)[C@H](CC(C)C)NC(=O)[C@H](Cc1c[nH]cn1)NC(=O)[C@H](C)NC(=O)[C@H](CC(N)=O)NC(=O)[C@H](CSC1CC(=O)N(CC)C1=O)NC(=O)[C@H](C)NC(=O)[C@H](C)NC(=O)[C@H](CCC(N)=O)NC(=O)[C@H](C)NC(=O)[C@H](CCCNC(=N)N)NC(=O)[C@H](CC(C)C)NC(=O)[C@H](CC(N)=O)NC(=O)[C@H](CCCCN)NC(=O)[C@H](C)NC(=O)[C@H](CCCCN)NC(=O)[C@H](C)NC(=O)[C@@H](NC(=O)[C@H](CC(N)=O)NC(=O)[C@H](Cc1ccccc1)NC(=O)[C@H](CC(C)C)NC(=O)[C@H](CC(C)C)NC(=O)[C@H](CC(N)=O)NC(=O)[C@H](CCSC)NC(=O)[C@@H](NC(=O)[C@H](CC(N)=O)NC(=O)[C@@H](NC(=O)[C@@H]1CCCN1C(=O)[C@@H](NC(=O)[C@H](CC(=O)O)NC(=O)[C@H](CC(C)C)NC(=O)[C@H](CO)NC(=O)[C@H](CC(C)C)NC(=O)[C@@H](NC(=O)[C@H](Cc1ccccc1)NC(=O)[C@H](CCCCN)NC(=O)[C@@H](N)[C@@H](C)O)[C@@H](C)O)C(C)C)[C@@H](C)O)[C@@H](C)CC)[C@@H](C)CC)C(N)=O) [Cys-variant of stresscopin peptide with N-Ethylsuccinimide (NES) reactive group SEQ ID NO: 45] | -0.01 | 9.48 -log10(M) |
| TKFTLSLDVPTNIMNLLFNIAKAKNLRAQAAAC(Succinimide(1-Et,3-yl))AHLMAQI-NH2 (N-terminus assumed; SMILES CC[C@H](C)[C@H](NC(=O)[C@H](CCC(N)=O)NC(=O)[C@H](C)NC(=O)[C@H](CCSC)NC(=O)[C@H](CC(C)C)NC(=O)[C@H](Cc1c[nH]cn1)NC(=O)[C@H](C)NC(=O)[C@H](CSC1CC(=O)N(CC)C1=O)NC(=O)[C@H](C)NC(=O)[C@H](C)NC(=O)[C@H](C)NC(=O)[C@H](CCC(N)=O)NC(=O)[C@H](C)NC(=O)[C@H](CCCNC(=N)N)NC(=O)[C@H](CC(C)C)NC(=O)[C@H](CC(N)=O)NC(=O)[C@H](CCCCN)NC(=O)[C@H](C)NC(=O)[C@H](CCCCN)NC(=O)[C@H](C)NC(=O)[C@@H](NC(=O)[C@H](CC(N)=O)NC(=O)[C@H](Cc1ccccc1)NC(=O)[C@H](CC(C)C)NC(=O)[C@H](CC(C)C)NC(=O)[C@H](CC(N)=O)NC(=O)[C@H](CCSC)NC(=O)[C@@H](NC(=O)[C@H](CC(N)=O)NC(=O)[C@@H](NC(=O)[C@@H]1CCCN1C(=O)[C@@H](NC(=O)[C@H](CC(=O)O)NC(=O)[C@H](CC(C)C)NC(=O)[C@H](CO)NC(=O)[C@H](CC(C)C)NC(=O)[C@@H](NC(=O)[C@H](Cc1ccccc1)NC(=O)[C@H](CCCCN)NC(=O)[C@@H](N)[C@@H](C)O)[C@@H](C)O)C(C)C)[C@@H](C)O)[C@@H](C)CC)[C@@H](C)CC)C(N)=O) [Cys-variant of stresscopin peptide with N-Ethylsuccinimide (NES) reactive group SEQ ID NO: 44] | ~1.97 | ~7.5 -log10(M) |
| TKFTLSLDVPTNIMNLLFNIAKAKNLRAQAAANAHLMAQC(Succinimide(1-Et,3-yl))-NH2 (N-terminus assumed; SMILES CC[C@H](C)[C@H](NC(=O)[C@H](CC(N)=O)NC(=O)[C@H](Cc1ccccc1)NC(=O)[C@H](CC(C)C)NC(=O)[C@H](CC(C)C)NC(=O)[C@H](CC(N)=O)NC(=O)[C@H](CCSC)NC(=O)[C@@H](NC(=O)[C@H](CC(N)=O)NC(=O)[C@@H](NC(=O)[C@@H]1CCCN1C(=O)[C@@H](NC(=O)[C@H](CC(=O)O)NC(=O)[C@H](CC(C)C)NC(=O)[C@H](CO)NC(=O)[C@H](CC(C)C)NC(=O)[C@@H](NC(=O)[C@H](Cc1ccccc1)NC(=O)[C@H](CCCCN)NC(=O)[C@@H](N)[C@@H](C)O)[C@@H](C)O)C(C)C)[C@@H](C)O)[C@@H](C)CC)C(=O)N[C@@H](C)C(=O)N[C@@H](CCCCN)C(=O)N[C@@H](C)C(=O)N[C@@H](CCCCN)C(=O)N[C@@H](CC(N)=O)C(=O)N[C@@H](CC(C)C)C(=O)N[C@@H](CCCNC(=N)N)C(=O)N[C@@H](C)C(=O)N[C@@H](CCC(N)=O)C(=O)N[C@@H](C)C(=O)N[C@@H](C)C(=O)N[C@@H](C)C(=O)N[C@@H](CC(N)=O)C(=O)N[C@@H](C)C(=O)N[C@@H](Cc1c[nH]cn1)C(=O)N[C@@H](CC(C)C)C(=O)N[C@@H](CCSC)C(=O)N[C@@H](C)C(=O)N[C@@H](CCC(N)=O)C(=O)N[C@@H](CSC1CC(=O)N(CC)C1=O)C(N)=O) [Cys-variant of stresscopin peptide with N-Ethylsuccinimide (NES) reactive group SEQ ID NO: 42] | ~1.72 | ~7.75 -log10(M) |
| TKFTLSLDVPTNIMNLLFNIAKAKNLRAQAAANAC(Succinimide(1-Et,3-yl))LMAQI-NH2 (N-terminus assumed; SMILES CC[C@H](C)[C@H](NC(=O)[C@H](CCC(N)=O)NC(=O)[C@H](C)NC(=O)[C@H](CCSC)NC(=O)[C@H](CC(C)C)NC(=O)[C@H](CSC1CC(=O)N(CC)C1=O)NC(=O)[C@H](C)NC(=O)[C@H](CC(N)=O)NC(=O)[C@H](C)NC(=O)[C@H](C)NC(=O)[C@H](C)NC(=O)[C@H](CCC(N)=O)NC(=O)[C@H](C)NC(=O)[C@H](CCCNC(=N)N)NC(=O)[C@H](CC(C)C)NC(=O)[C@H](CC(N)=O)NC(=O)[C@H](CCCCN)NC(=O)[C@H](C)NC(=O)[C@H](CCCCN)NC(=O)[C@H](C)NC(=O)[C@@H](NC(=O)[C@H](CC(N)=O)NC(=O)[C@H](Cc1ccccc1)NC(=O)[C@H](CC(C)C)NC(=O)[C@H](CC(C)C)NC(=O)[C@H](CC(N)=O)NC(=O)[C@H](CCSC)NC(=O)[C@@H](NC(=O)[C@H](CC(N)=O)NC(=O)[C@@H](NC(=O)[C@@H]1CCCN1C(=O)[C@@H](NC(=O)[C@H](CC(=O)O)NC(=O)[C@H](CC(C)C)NC(=O)[C@H](CO)NC(=O)[C@H](CC(C)C)NC(=O)[C@@H](NC(=O)[C@H](Cc1ccccc1)NC(=O)[C@H](CCCCN)NC(=O)[C@@H](N)[C@@H](C)O)[C@@H](C)O)C(C)C)[C@@H](C)O)[C@@H](C)CC)[C@@H](C)CC)C(N)=O) [Cys-variant of stresscopin peptide with N-Ethylsuccinimide (NES) reactive group SEQ ID NO: 43] | -0.32 | 9.79 -log10(M) |
